Positions count from the first letter of the chain named.

T1: Sortilin SORTECDBAP_hB45678 (human/tetraodon chimera)
T1 construct: Shuffle construct: chimeric human/tetraodon Sortilin ECD with BAP tag
T1 chain: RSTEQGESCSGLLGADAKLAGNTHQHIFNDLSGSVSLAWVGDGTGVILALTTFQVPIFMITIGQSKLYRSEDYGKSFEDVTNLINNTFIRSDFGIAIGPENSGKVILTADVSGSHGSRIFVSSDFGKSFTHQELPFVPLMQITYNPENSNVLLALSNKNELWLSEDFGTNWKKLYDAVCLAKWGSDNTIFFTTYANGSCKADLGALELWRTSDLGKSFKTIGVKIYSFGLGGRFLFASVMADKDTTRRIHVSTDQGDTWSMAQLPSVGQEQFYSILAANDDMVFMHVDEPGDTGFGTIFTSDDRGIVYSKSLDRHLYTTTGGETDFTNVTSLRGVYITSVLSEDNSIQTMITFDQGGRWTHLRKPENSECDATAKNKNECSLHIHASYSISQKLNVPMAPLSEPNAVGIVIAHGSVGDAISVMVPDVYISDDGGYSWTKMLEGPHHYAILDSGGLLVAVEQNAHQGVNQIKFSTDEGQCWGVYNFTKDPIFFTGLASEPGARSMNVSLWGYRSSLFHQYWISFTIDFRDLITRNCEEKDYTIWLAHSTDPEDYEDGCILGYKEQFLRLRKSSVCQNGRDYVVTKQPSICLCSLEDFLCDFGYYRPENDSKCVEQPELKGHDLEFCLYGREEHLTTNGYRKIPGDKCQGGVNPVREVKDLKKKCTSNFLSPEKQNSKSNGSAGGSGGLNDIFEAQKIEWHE

T2: Sortilin SORTECDBAP_tetra (tetraodon)
T2 construct: Fully tetraodon Sortilin ECD with BAP tag; also called tetraodon; tetraodon Sortilin
T2 chain: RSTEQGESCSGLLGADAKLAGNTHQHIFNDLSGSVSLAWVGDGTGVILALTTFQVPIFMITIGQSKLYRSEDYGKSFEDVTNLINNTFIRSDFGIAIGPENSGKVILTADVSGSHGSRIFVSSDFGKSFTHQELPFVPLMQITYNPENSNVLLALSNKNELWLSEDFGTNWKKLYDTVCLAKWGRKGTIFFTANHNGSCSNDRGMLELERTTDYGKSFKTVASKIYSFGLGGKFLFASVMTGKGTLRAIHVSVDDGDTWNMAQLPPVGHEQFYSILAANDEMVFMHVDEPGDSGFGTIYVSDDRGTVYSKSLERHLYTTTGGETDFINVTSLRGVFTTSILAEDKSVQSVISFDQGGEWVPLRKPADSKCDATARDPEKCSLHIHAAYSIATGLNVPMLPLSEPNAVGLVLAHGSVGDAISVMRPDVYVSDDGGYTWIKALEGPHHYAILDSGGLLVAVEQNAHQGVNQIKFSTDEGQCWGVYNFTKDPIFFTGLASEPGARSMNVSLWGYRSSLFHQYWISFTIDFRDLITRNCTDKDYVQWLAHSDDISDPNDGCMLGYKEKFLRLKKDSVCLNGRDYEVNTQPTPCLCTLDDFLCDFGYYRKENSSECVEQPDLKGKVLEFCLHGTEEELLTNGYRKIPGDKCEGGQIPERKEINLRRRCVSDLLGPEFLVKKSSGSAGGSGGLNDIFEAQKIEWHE

T3: Sortilin hSORTECDBAP (human, UniProt Q99523 78-755)
T3 sequence: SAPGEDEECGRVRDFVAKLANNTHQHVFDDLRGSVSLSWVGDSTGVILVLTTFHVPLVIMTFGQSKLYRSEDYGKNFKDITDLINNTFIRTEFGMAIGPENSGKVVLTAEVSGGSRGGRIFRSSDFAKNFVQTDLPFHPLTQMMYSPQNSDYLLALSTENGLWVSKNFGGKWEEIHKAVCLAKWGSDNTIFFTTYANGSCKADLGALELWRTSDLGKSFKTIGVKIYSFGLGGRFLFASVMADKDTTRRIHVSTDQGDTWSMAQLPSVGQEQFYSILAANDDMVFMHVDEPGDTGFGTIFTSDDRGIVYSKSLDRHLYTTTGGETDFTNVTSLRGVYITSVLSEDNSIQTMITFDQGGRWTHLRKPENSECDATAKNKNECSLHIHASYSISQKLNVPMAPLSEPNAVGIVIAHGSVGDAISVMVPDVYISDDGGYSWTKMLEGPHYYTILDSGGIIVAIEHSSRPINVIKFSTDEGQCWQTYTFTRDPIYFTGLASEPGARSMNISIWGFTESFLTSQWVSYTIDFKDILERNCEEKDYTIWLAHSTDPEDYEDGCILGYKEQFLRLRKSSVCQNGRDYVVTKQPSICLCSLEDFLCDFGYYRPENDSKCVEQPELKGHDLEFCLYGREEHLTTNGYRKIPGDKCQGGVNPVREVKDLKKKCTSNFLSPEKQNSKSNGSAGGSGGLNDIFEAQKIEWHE

T4: Sortilin SORTECDBAP_hB12390 (human/tetraodon chimera)
T4 construct: Shuffle construct: chimeric human/tetraodon Sortilin ECD with BAP tag
T4 chain: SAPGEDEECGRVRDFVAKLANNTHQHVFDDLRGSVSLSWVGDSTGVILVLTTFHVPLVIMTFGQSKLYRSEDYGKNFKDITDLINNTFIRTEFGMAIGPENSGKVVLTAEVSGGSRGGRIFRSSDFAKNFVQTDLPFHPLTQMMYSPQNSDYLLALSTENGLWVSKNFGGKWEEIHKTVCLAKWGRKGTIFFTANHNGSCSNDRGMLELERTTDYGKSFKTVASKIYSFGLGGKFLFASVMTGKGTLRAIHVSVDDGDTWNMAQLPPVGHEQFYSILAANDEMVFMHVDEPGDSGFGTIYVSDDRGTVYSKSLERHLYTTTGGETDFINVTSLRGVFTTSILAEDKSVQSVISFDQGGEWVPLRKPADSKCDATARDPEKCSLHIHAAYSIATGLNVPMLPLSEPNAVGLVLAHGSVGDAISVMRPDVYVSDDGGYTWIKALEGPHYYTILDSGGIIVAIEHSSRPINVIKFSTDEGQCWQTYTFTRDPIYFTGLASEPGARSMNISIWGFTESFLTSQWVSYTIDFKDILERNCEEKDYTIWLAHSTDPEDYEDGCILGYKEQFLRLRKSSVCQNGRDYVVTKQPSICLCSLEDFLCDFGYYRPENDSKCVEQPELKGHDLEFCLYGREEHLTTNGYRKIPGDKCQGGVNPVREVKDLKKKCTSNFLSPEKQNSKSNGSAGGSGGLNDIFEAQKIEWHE

B1: IgG1-6003-408 (antibody, V domains shown)
VH: EVQLVESGGGLVKPGGSLRLSCAASGFTFSSYSMNWVRQAPGKGLEWVSSISSSSSYIYYADSVKGRFTISRDNAKNSLYLQMNSLRAEDTAVYYCARRRIAAAGTGYGAFDIWGQGTMVTVSS
VL: ARQLTQSPSSLSASVGDRVTITCRASQGITSALAWYQQKPGKVPKLLIYDASSLESGVPSRFSGSGSGTDFTLTISSLQPEDFATYYCQQFNGYPMFSFGQGTKLEII
notes: also called Antibody 6003-408
B2: Antibody 6003-381 (antibody, human IgG1, V domains shown)
VH: QVQLVESGGGVVQPGRSLRLSCAASGFTFSNYVMHWVRQAPGKGLEWVAAISYNGNNKYYADSVKGRFTISRDNSKNTLYLQMNSLRAEDTAVSYCAKGLNDAFDIWGQGTMVTVSS
VL: not shown
B3: Antibody 6003-030 (antibody, human IgG1, V domains shown)
VH: EVQVLESGGGLVQPGGSLRLSCAASGFTFSSYAMSWVRQAPGKGLEWVSTISGRGGNTYYADSVKGRFTISRDNSKNTLYLQMDSLRAEDTAVYYCAIIPSLYWYFDLWGRGTLVTVSS
VL: EIVLTQSPATLSLSPGERATLSCRASQSVSSYLAWYQQKPGQAPRLLIYDASNRATGIPARFSGSGSGTDFTLTISSLEPEDFAVYYCQQRSNWPLTFGGGTKVEIK
notes: Human antibody (HuMab); also called antibody 30; mAb30
B4: Antibody 6003-1286 (antibody, human IgG1, V domains shown)
VH: B3 VH with V4L, D84N, T91A, I98N, P100Y, L102H
VL: B3 VL with S30N
B5: Antibody 6003-083 (antibody, human IgG1, V domains shown)
VH: B3 VH with V4L, N57S, D84N, I99V, P100A, S101T, L102M
VL: B3 VL with L96I, G100Q, K103R, V104L
B6: Antibody 6003-028 (antibody, human IgG1, V domains shown)
VH: B3 VH with V4L, N57S, D84N, I98N, I99L, P100Y, L102N
VL: B3 VL with Y32F
B7: Antibody 6003-056 (antibody, human IgG1, V domains shown)
VH: B3 VH with A23V, S35H, T50A, N57S, D84N
VL: B3 VL with Y32F
B8: Antibody 6003-1277 (antibody, V domains shown)
VH: QVQLVQSGAEVKKPGASVKVSCKTSGYTFTHYGISWVRQAPGQGLEWMGWINTYNGNTKYAQKLQGRVTMTTDTSTSTAYMELRSLRSDDTAVYYCASLGRNFDYWGQGTLVTVSS
VL: not shown

For one experiment, the target named is T1, Sortilin SORTECDBAP_hB45678. As to the kind of experiment: BLI (Octet384RED).
Broadly, the EC50 is the concentration that produces a half-maximal response. B1 gave an EC50 of 2.58 ng/mL.

In turn, B2 returned an EC50 of 2 ng/mL.

Take B3: the EC50 came out at 0.85 ng/mL.

Consider B4, for which the response was half-maximal at 1.02 ng/mL (EC50).

The molecule B5 registered an EC50 of 0.92 ng/mL.

In the case of B6, the midpoint of the response, the EC50, lay at 1.96 ng/mL.

On to B7, for which it took 1.1 ng/mL to reach a half-maximal effect (EC50).

B8 displayed an EC50 of 4.3 ng/mL.

The next experiment deals with T2, Sortilin SORTECDBAP_tetra. Kind of experiment: BLI (Octet384RED).
As for B1, the binding result is reported as “no binding”.

For the molecule B2, the binding result was “no binding”.

For B3, the binding result is recorded as “no binding”.

Regarding B4, the binding result was “no binding”.

Take B5: the binding result is reported as “no binding”.

Regarding B6, the binding result is “no binding”.

In the case of B7, the binding result is “no binding”.

Regarding B8, the binding result is on record as “no binding”.

Another experiment deals with T3, Sortilin hSORTECDBAP
As to the kind of experiment: BLI (Octet384RED).
The molecule B1 came in with an EC50 of 1.93 ng/mL.

B2 gave an EC50 of 1.82 ng/mL.

B3 displayed an EC50 of 0.89 ng/mL.

Molecule B4 had a half-maximal effective concentration (EC50) of 1.02 ng/mL.

In turn, B5 had a half-maximal effective concentration (EC50) of 0.77 ng/mL.

The molecule B6 showed an EC50 of 1.75 ng/mL.

Consider B7, for which the response was half-maximal at 1.26 ng/mL (EC50).

For the molecule B8, the concentration giving a half-maximal response (EC50) turned out to be 3.03 ng/mL.

The next experiment concerns the target T4, Sortilin SORTECDBAP_hB12390. Kind of experiment: BLI (Octet384RED).
Regarding B1, the EC50 turned out to be 2.21 ng/mL.

For B2, the EC50 was 1.93 ng/mL.

As for B3, the response was half-maximal at 0.82 ng/mL (EC50).

For B4, the EC50 was determined as 0.86 ng/mL.

In the case of B5, it took 0.86 ng/mL to reach a half-maximal effect (EC50).

For the molecule B6, a half-maximal response (EC50) required 1.86 ng/mL.

B7 returned a concentration giving a half-maximal response (EC50) of 1.42 ng/mL.

Molecule B8 registered a 50% effective concentration (EC50) of 3.63 ng/mL.

These data come from patent US20210292414A1 (H LUNDBECK A S, published 2021).
